This is an account of results in patent publication US20180185455A1 (OCTAPHARMA, published 2018).

Assay [1] deals with recombinant Factor VIII (UniProt P00451). In words: SPR (Biacore 2000), rFVIII coupled to CM5 chip, fragment injected.
For assay [2] the target is unchanged. The experiment in a line: SPR (Biacore 2000), rFVIII coupled to CM5 chip, VWF injected.
Assay [3] has as its target recombinant fragment III dimer with C-terminal Strep-Tag (human) (UniProt P04275). In words: SPR (Biacore 2000), fragment III dimer immobilized on CM5, FVIII concentration series injected.
For assay [4], the target named is recombinant fragment III monomer with C-terminal Strep-Tag (human) (UniProt P04275). In words: SPR (Biacore 2000), fragment III monomer immobilized on CM5, FVIII concentration series injected. A general note: Surface plasmon resonance follows binding to a sensor surface in real time, without labels.
Assay [5] concerns the target plasma derived full length Von Willebrand Factor (human) (UniProt P04275). The experiment in a line: SPR (Biacore 2000), plasma derived flVWF immobilized on a CM5 chip, FVIII concentration series injected; mean of n=4 per the legend.
For assay [6], the target named is T1, plasma derived full length Von Willebrand Factor (human, UniProt P04275 764-2813).
T1 construct: Plasma VWF is multimeric; also called pdVWF; flVWF
In words: SPR (Biacore 2000), collagen type III coupled to CM5 chip, VWF injected. On the procedure: (§1) The analysis was carried out using Biacore 2000 instrument (GE Healthcare) according to Romjin et al. 2003 with modifications. Briefly human pepsin-digested collagen type III was covalently bound to the surface of a CM5 sensor chip. Subsequently the samples were injected over the sensor chip surface. The running buffer was 10 mM HEPES, 150 mM NaCl, 3.4 mM EDTA, 0.005% Tween 20.

Assay [7] deals with T2, fragment III (SPIII, res. 764-2128) from plasma derived Von Willebrand Factor (human, UniProt P04275 764-2128).
T2 construct: Made by S. aureus V-8 protease digestion of pdVWF; also called VWF fragment III
The experiment in a line: SPR (Biacore 2000), collagen type III coupled to CM5 chip, fragment injected. On the procedure: as §1

The term Kd denotes the equilibrium constant for the complex coming apart.

Consider “fragment II (res. 764-1673) of Von Willebrand Factor (from UniProt P04275 764-1673)”, for which, in the assay with recombinant Factor VIII [1], the Kd was found to be 155 nM.
On the same count and under the same terms, as for “fragment III (SPIII, res. 764-2128) from plasma derived Von Willebrand Factor (from UniProt P04275 764-2128)”, the figure is 6.18 nM.
On to “plasma derived full length Von Willebrand Factor (from UniProt P04275 764-2813)”, for which the Kd in the assay with recombinant Factor VIII [2] came to 0.67 nM.
As for “recombinant Factor VIII (from UniProt P00451 20-2351)”, the values for the Kd in assay [3], in assay [4] and in assay [5] were 1.9 nM, 14.3 nM and 0.25 nM, respectively.

B1: human pepsin-digested collagen type III (other, UniProt P02461 168-1196, looked up)
chain: GLAGYPGPAGPPGPPGPPGTSGHPGSPGSPGYQGPPGEPGQAGPSGPPGPPGAIGPSGPAGKDGESGRPGRPGERGLPGPPGIKGPAGIPGFPGMKGHRGFDGRNGEKGETGAPGLKGENGLPGENGAPGPMGPRGAPGERGRPGLPGAAGARGNDGARGSDGQPGPPGPPGTAGFPGSPGAKGEVGPAGSPGSNGAPGQRGEPGPQGHAGAQGPPGPPGINGSPGGKGEMGPAGIPGAPGLMGARGPPGPAGANGAPGLRGGAGEPGKNGAKGEPGPRGERGEAGIPGVPGAKGEDGKDGSPGEPGANGLPGAAGERGAPGFRGPAGPNGIPGEKGPAGERGAPGPAGPRGAAGEPGRDGVPGGPGMRGMPGSPGGPGSDGKPGPPGSQGESGRPGPPGPSGPRGQPGVMGFPGPKGNDGAPGKNGERGGPGGPGPQGPPGKNGETGPQGPPGPTGPGGDKGDTGPPGPQGLQGLPGTGGPPGENGKPGEPGPKGDAGAPGAPGGKGDAGAPGERGPPGLAGAPGLRGGAGPPGPEGGKGAAGPPGPPGAAGTPGLQGMPGERGGLGSPGPKGDKGEPGGPGADGVPGKDGPRGPTGPIGPPGPAGQPGDKGEGGAPGLPGIAGPRGSPGERGETGPPGPAGFPGAPGQNGEPGGKGERGAPGEKGEGGPPGVAGPPGGSGPAGPPGPQGVKGERGSPGGPGAAGFPGARGLPGPPGSNGNPGPPGPSGSPGKDGPPGPAGNTGAPGSPGVSGPKGDAGQPGEKGSPGAQGPPGAPGPLGIAGITGARGLAGPPGMPGPRGSPGPQGVKGESGKPGANGLSGERGPPGPQGLPGLAGTAGEPGRDGNPGSDGLPGRDGSPGGKGDRGENGSPGAPGAPGHPGPPGPVGPAGKSGDRGESGPAGPAGAPGPAGSRGAPGPQGPRGDKGETGERGAAGIKGHRGFPGNPGAPGSPGPAGQQGAIGSPGPAGPRGPVGPSGPPGKDGTSGHPGPIGPPGPRGNRGERGSEGSPGHPGQPGPPGPPGAPGPC
notes: also called collagen III
B1: the results for the Kd in assay [6] and in assay [7] were 0.75 nM and 17 nM, respectively.
